Laboratory results reported in paper PMC10130748 (Life Science Alliance, 2023).
Positions of bridges follow the written chain, without caps; N, C: chain ends. No end group written: not given here.

Target: T1, CD62P (P-selectin) lectin domain (residues 1–117), wild type
T1 construct: CD62P (P-selectin) C-type lectin domain, residues 1-117; cDNA chemically synthesized, BamHI/EcoRI site of pET28a; also called CD62P lectin domain; C-type lectin domain of CD62P; not shown: His tag from pET28a ([residues removed]), N-terminal, kept
T1 chain: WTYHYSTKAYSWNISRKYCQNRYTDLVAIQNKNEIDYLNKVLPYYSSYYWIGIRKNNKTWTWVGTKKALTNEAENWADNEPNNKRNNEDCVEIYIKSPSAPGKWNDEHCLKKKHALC
Test: ELISA; wells coated with the CD62P lectin domain (20 μg/ml), blocked with BSA; site 2 peptides fused to GST (100 μg/ml); bound GST detected with HRP-conjugated anti-GST
Conditions: both partners purified

B1: cyclic site 2 peptide of integrin β3 (residues 260–288, C273S) fused to GST (peptide)
chain: CRLAGIVQPNDGQSHVGSDNHYSASTTMC
modifications: disulfide 1-29 (inferred); also: fused to GST
notes: also called cyclic site 2 peptide from β3; site 2 peptide of β3
B1: binds.

B2: cyclic site 2 peptide of integrin β1 (residues 268–295, C281S) fused to GST (peptide)
chain: CKLGGIVLPNDGQSHLENNMYTMSHYYC
modifications: disulfide 1-28 (inferred); also: fused to GST
notes: also called cyclic site 2 peptide from β1; site 2 peptide from β1
B2: binds.
